According to article PMC6053351:

Tests used:
[1] = biological target: RBBP4 Glu126Ala/Asn128Ala/Glu179Ala (UniProt Q09028); assay: ITC; AEBP2 ZF1–3 titrated into RBBP4; one-site binding model, Origin 7
[2] = biological target: RBBP4, full-length, wild type (UniProt Q09028); assay: as above
Sequence of RBBP4, full-length, wild type (Q09028 whole entry): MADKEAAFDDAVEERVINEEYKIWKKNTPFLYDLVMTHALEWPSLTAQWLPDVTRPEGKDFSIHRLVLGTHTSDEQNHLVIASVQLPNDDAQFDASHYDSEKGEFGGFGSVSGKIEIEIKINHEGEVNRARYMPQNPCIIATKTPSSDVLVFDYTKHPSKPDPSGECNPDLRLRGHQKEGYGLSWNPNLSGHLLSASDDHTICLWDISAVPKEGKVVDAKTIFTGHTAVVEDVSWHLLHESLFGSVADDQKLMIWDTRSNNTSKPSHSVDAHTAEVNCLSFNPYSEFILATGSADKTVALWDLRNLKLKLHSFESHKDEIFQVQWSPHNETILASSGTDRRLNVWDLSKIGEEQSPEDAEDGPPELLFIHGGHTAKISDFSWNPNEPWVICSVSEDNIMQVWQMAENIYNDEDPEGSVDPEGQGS

Sequence of RBBP4 Glu126Ala/Asn128Ala/Glu179Ala (Q09028 whole entry E126A/N128A/E179A): as the sequence (Q09028 whole entry) above, with E126A, N128A, E179A counted along it

Question: With “AEBP2 ZF1–3 (three zinc fingers, residues Asn258–Gln357) (domain or fragment)” as the substance, how does the Kd [1] read?
Answer: The Kd was 16 µM.

Question: What about the Kd [2] of the same substance?
Answer: Its Kd is 10.1 µM.
